Test results published in patent publication US20150344570A1 (published 2015).

Columns and labels:
[1] = biological target: T1, FcγRIIIa extracellular domain with C-terminal His tag (human, UniProt P08637 17-208); experiment: SPR (Biacore); He/Con_3a divided by He/Con_2b (FcγRIIb)
T1 construct: extracellular domain; also called FcgRIIIa; 3a; not shown: His tag at the C terminus

[2] = biological target: T1, FcγRIIIa extracellular domain with …; experiment: SPR (Biacore), FcγR as analyte over captured antibody; GpH7-A5/GpH7-B3/GpL16-k0 = 100
Method: (§1) The heterodimerized antibodies He Abs in which one of the H chains was introduced with an alteration were assayed for their binding activities to each activating FcγR and inhibitory FcγR according to the method described in Example 4. […] The activating FcγRs in FIGS. 26, 27, 28, and 29 are FcγRIa, FcγRIIa (R), FcγRIIa (H), and FcγRIIIa, respectively.
(§2) Analysis of interaction between objective antibody and the FcγR was carried out using Biacore T100 (GE Healthcare). HBS-EP+ (GE Healthcare) was used as the running buffer, and the measurement temperature was set to 25° C. Chips produced by immobilizing the antigen peptide by the amine coupling method to a Series S Sencor Chip CM5 (GE Healthcare), or alternatively, chips produced by allowing preliminarily biotinylated antigen peptides to interact with and immobilize onto a Series S Sensor Chip SA (certified) (GE Healthcare) were used. Antibodies of interest were captured onto an antigen peptide-immobilized chip, and allowed to interact to each FcγR diluted with running buffer. To regenerate and repeatedly use the chip, the antibodies captured on the chip were washed off by reacting 10 mM glycine-HCl, pH 1.5.

[3] = biological target: T2, FcγRIIb extracellular domain with C-terminal His tag (human, UniProt P31994 43-217); experiment: as above
T2 construct: extracellular domain; also called FcgRIIb; 2b; not shown: His tag at the C terminus
T2 sequence (looked up): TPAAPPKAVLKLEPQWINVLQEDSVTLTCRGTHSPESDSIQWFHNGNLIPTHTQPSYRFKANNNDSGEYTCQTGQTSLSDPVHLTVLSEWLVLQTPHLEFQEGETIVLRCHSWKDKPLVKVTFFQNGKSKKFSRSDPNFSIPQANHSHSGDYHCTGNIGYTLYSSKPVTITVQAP
Method: as §1, §2

T1 sequence (P08637 17-208): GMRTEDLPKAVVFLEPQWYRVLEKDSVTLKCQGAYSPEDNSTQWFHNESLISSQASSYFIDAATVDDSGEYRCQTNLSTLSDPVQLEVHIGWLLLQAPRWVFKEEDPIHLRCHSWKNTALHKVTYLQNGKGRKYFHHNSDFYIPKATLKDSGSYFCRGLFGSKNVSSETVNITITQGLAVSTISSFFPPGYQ

B1: GpH7-A5/GpH7-B3 variant N325_07I/GpL16-k0 (antibody, human IgG1, kappa)
heavy 1: not shown
heavy 2: not shown
light: DIVMTQSPLSLPVTPGEPASISCQASESLVHSNRNTYLHWYLQKPGQSPQLLIYKVSNRFSGVPDRFSGSGSGTDFTLKISRVEAEDVGVYYCSQNTHVPPTFGQGTKVEIERTVAAPSVFIFPPSDEQLKSGTASVVCLLNNFYPREAKVQWKVDNALQSGNSQESVTEQDSKDSTYSLSSTLTLSKADYEKHKVYACEVTHQGLSSPVTKSFNRGEC
notes: Heterodimerized IgG1 antibody; alteration in the GpH7-B3 chain only; also called He Ab
- He_3a/2b (IIIa/IIb) [1]: 0.17 ratio
- He/Con_3a [2]: 28.7 % of control
- He/Con_2b [3]: 171 % of control

B2: GpH7-A5/GpH7-B3 variant N325_08L/GpL16-k0 (antibody, human IgG1, kappa)
heavy 1: not shown
heavy 2: not shown
light: DIVMTQSPLSLPVTPGEPASISCQASESLVHSNRNTYLHWYLQKPGQSPQLLIYKVSNRFSGVPDRFSGSGSGTDFTLKISRVEAEDVGVYYCSQNTHVPPTFGQGTKVEIERTVAAPSVFIFPPSDEQLKSGTASVVCLLNNFYPREAKVQWKVDNALQSGNSQESVTEQDSKDSTYSLSSTLTLSKADYEKHKVYACEVTHQGLSSPVTKSFNRGEC
notes: as for B1
- He_3a/2b (IIIa/IIb) [1]: 0.17 ratio
- He/Con_3a [2]: 33.3 % of control
- He/Con_2b [3]: 197 % of control

B3: GpH7-A5/GpH7-B3 variant N325_09D/GpL16-k0 (antibody, human IgG1, kappa)
heavy 1: not shown
heavy 2: not shown
light: DIVMTQSPLSLPVTPGEPASISCQASESLVHSNRNTYLHWYLQKPGQSPQLLIYKVSNRFSGVPDRFSGSGSGTDFTLKISRVEAEDVGVYYCSQNTHVPPTFGQGTKVEIERTVAAPSVFIFPPSDEQLKSGTASVVCLLNNFYPREAKVQWKVDNALQSGNSQESVTEQDSKDSTYSLSSTLTLSKADYEKHKVYACEVTHQGLSSPVTKSFNRGEC
notes: as for B1
- He_3a/2b (IIIa/IIb) [1]: 0.39 ratio
- He/Con_3a [2]: 48 % of control
- He/Con_2b [3]: 124 % of control

B4: GpH7-A5/GpH7-B3 variant N325_10E/GpL16-k0 (antibody, human IgG1, kappa)
heavy 1: not shown
heavy 2: not shown
light: DIVMTQSPLSLPVTPGEPASISCQASESLVHSNRNTYLHWYLQKPGQSPQLLIYKVSNRFSGVPDRFSGSGSGTDFTLKISRVEAEDVGVYYCSQNTHVPPTFGQGTKVEIERTVAAPSVFIFPPSDEQLKSGTASVVCLLNNFYPREAKVQWKVDNALQSGNSQESVTEQDSKDSTYSLSSTLTLSKADYEKHKVYACEVTHQGLSSPVTKSFNRGEC
notes: as for B1
- He_3a/2b (IIIa/IIb) [1]: 0.4 ratio
- He/Con_3a [2]: 38.2 % of control
- He/Con_2b [3]: 95.9 % of control

B5: GpH7-A5/GpH7-B3 variant N325_11K/GpL16-k0 (antibody, human IgG1, kappa)
heavy 1: not shown
heavy 2: not shown
light: DIVMTQSPLSLPVTPGEPASISCQASESLVHSNRNTYLHWYLQKPGQSPQLLIYKVSNRFSGVPDRFSGSGSGTDFTLKISRVEAEDVGVYYCSQNTHVPPTFGQGTKVEIERTVAAPSVFIFPPSDEQLKSGTASVVCLLNNFYPREAKVQWKVDNALQSGNSQESVTEQDSKDSTYSLSSTLTLSKADYEKHKVYACEVTHQGLSSPVTKSFNRGEC
notes: as for B1
- He_3a/2b (IIIa/IIb) [1]: 0.5 ratio
- He/Con_3a [2]: 5.2 % of control
- He/Con_2b [3]: 10.4 % of control

B6: GpH7-A5/GpH7-B3 variant N325_13S/GpL16-k0 (antibody, human IgG1, kappa)
heavy 1: not shown
heavy 2: not shown
light: DIVMTQSPLSLPVTPGEPASISCQASESLVHSNRNTYLHWYLQKPGQSPQLLIYKVSNRFSGVPDRFSGSGSGTDFTLKISRVEAEDVGVYYCSQNTHVPPTFGQGTKVEIERTVAAPSVFIFPPSDEQLKSGTASVVCLLNNFYPREAKVQWKVDNALQSGNSQESVTEQDSKDSTYSLSSTLTLSKADYEKHKVYACEVTHQGLSSPVTKSFNRGEC
notes: as for B1
- He_3a/2b (IIIa/IIb) [1]: 0.37 ratio
- He/Con_3a [2]: 65.1 % of control
- He/Con_2b [3]: 177 % of control

B7: GpH7-A5/GpH7-B3 variant N325_14T/GpL16-k0 (antibody, human IgG1, kappa)
heavy 1: not shown
heavy 2: not shown
light: DIVMTQSPLSLPVTPGEPASISCQASESLVHSNRNTYLHWYLQKPGQSPQLLIYKVSNRFSGVPDRFSGSGSGTDFTLKISRVEAEDVGVYYCSQNTHVPPTFGQGTKVEIERTVAAPSVFIFPPSDEQLKSGTASVVCLLNNFYPREAKVQWKVDNALQSGNSQESVTEQDSKDSTYSLSSTLTLSKADYEKHKVYACEVTHQGLSSPVTKSFNRGEC
notes: as for B1
- He_3a/2b (IIIa/IIb) [1]: 0.43 ratio
- He/Con_3a [2]: 39.4 % of control
- He/Con_2b [3]: 91.6 % of control

B8: GpH7-A5/GpH7-B3 variant N325_15Y/GpL16-k0 (antibody, human IgG1, kappa)
heavy 1: not shown
heavy 2: not shown
light: DIVMTQSPLSLPVTPGEPASISCQASESLVHSNRNTYLHWYLQKPGQSPQLLIYKVSNRFSGVPDRFSGSGSGTDFTLKISRVEAEDVGVYYCSQNTHVPPTFGQGTKVEIERTVAAPSVFIFPPSDEQLKSGTASVVCLLNNFYPREAKVQWKVDNALQSGNSQESVTEQDSKDSTYSLSSTLTLSKADYEKHKVYACEVTHQGLSSPVTKSFNRGEC
notes: as for B1
- He_3a/2b (IIIa/IIb) [1]: 0.3 ratio
- He/Con_3a [2]: 29.5 % of control
- He/Con_2b [3]: 99.5 % of control

B9: GpH7-A5/GpH7-B3 variant N325_19Q/GpL16-k0 (antibody, human IgG1, kappa)
heavy 1: not shown
heavy 2: not shown
light: DIVMTQSPLSLPVTPGEPASISCQASESLVHSNRNTYLHWYLQKPGQSPQLLIYKVSNRFSGVPDRFSGSGSGTDFTLKISRVEAEDVGVYYCSQNTHVPPTFGQGTKVEIERTVAAPSVFIFPPSDEQLKSGTASVVCLLNNFYPREAKVQWKVDNALQSGNSQESVTEQDSKDSTYSLSSTLTLSKADYEKHKVYACEVTHQGLSSPVTKSFNRGEC
notes: as for B1
- He_3a/2b (IIIa/IIb) [1]: 0.46 ratio
- He/Con_3a [2]: 31.6 % of control
- He/Con_2b [3]: 69.1 % of control
